B1: No. 2: DATAS fragment; melanoma assoc. antigen (mutated) 1; exon extension (nucleic acid, listed as Homo sapiens)
DNA: GGCTCAGGGGGCACGTTTGCGTTTGGACCTGTCTGCGCGTTCTCCTGCGTGGCAGTCCTGATTTCCATACTTCTGGAGAATCCATTTCGTTAACACTGAAAGCCAGTTCTCTTTTCCTGGCAGTTTTTTTCATTTTATTTTTGGCATTTTTTACAAGATACCGTTCGGGAAAGGCTTTTGAAAGGACGGAAGCGTATTCACTGTGCGCCAGTACTCCTGGCTGTGCTGTGGTTTCTCCCGACGTGCACATCGATCTCGTATGTGTGGCATCTGATATTAAACGGGAGGTTTTAAGAAGCGTCTGCCGTGATCATGGAGCTTCGGAAGCGGGAATGGTTCTTCCGGGTTTGCTGTTTTGTCTGTTTCCCCCTTGTGTGGTTTCCGCCTGCGACAGTTCCAGAATTTGCTCTCCCACTCAGTGTGCTCTGCAGCTG
B2: No. 1: DATAS fragment; chromosome 14 open reading frame 122; exon extension (nucleic acid, listed as Homo sapiens)
DNA: CTACCGGGGGAAGGGTCAAAGAGCGTGCCGAAGCGCTGGAGGGAGCTTCACGGACGCGAGCTAGGCACCGGCTCGCCTAATCCGGTACTAATCCGGCTTGCTGCTTCCCGTCCAGGCCTCGCTCGCCATGGGGGAGGTGGAGATCTCGGCCCTGGCCTACGTGAAGATGTGCCTGCATGCTGCCCGGTACCCACACGCCGCAGTCAACGGGCTGTTTTTGGCGCCAGCGCCGCGGTCTGGAGAATGCCTGTGCCTCACCGACTGTGTGCCCCTCTTCCACAGCCACCTGGACCTGTCCGTCATGTTGGAGGTCGCCCTCAACCAGGTGCCTCCGTTGCAT
B3: No. 3: DATAS fragment; aminoacylase 1; exon extension (nucleic acid, listed as Homo sapiens)
DNA: CCAGGCAGCTGGCGAGGGGGTCACCCTAGAGTTTGCTCAGGTATGGACTTGGGACATGTGATGGGAGAGTGTGGGAGCCGGGGGAGACCCAAGTGTGCAACAGTGGAGTGTGTGCTTGGTGTGTCTGCATATGTCTGGGCATTTCTTTATCTGTGACAGACACATTTTATTCCAACAAGCATTCATTGTAGAGGCCACTGTGGGTGCTGGGGAATGCTGTGGGGAGTAAAATTAGGCACAGTTCATGCCCTTGTATGGTGAAACGGGGAGATATAAATCAAACATTTATGTGATATTACTTTTTTCTGAGAGAATCTCACTCCGTCAC

Assays:
[1] = system: PSMA messenger RNA (mRNA); conditions: LNCaP prostate cancer cell line after exposure; cited from earlier work
[2] = system: HLA class I (e.g. HLA-A2) expressing adherent 293T cells; test: CTL assay on reverse transfected microarray (caspase activation, fluorescent Z-VAD); format: cell-based, human; conditions: HLA-matched CD8+ T cells from prostate cancer patients incubated 4 hours on array; red fluorescent signal = positive response
Source text: Additional patient samples were procured for the cytotoxic T Lymphocyte (CTL) assay. […] (PBMC) were isolated from blood drawn from patients with relevant clinical parameters, and with patient consent. Clinical data generally included patent history, physiopathology, and parameters relating to prostate cancer physiology. PBMCs were collected from 6 prostate cancer patients that met the study requirements. Duplicate samples were obtained from a single patient.
The 192 selected DATAS fragments were PCR amplified out of the library vector and directionally cloned into a eukaryotic expression vector down stream from staggered start site initiation codons. This configuration allows the DATAS fragment to be expressed in all the open reading frames, which is required because the correct reading frame is not always readily apparent.
Plasmid preparations were performed and the expression vectors containing the selcted DATAS fragment clones were re-arrayed into 96 well plates, which were subsequently used to spot glass slides for use in the CTL assay previously disclosed in International Patent Application No. PTC/US2005/032392, the disclosure of which is incorporated by reference in its entirety.
A design file containing the desired microarray positions of the DATAS expression vectors was uploaded into a high resolution scanner. The expression vectors containing the DATAS fragments were mixed with gelatin and lipofectamine and then spotted in duplicate in a pattern that matched the design file uploaded into the high resolution microarray scanner. The following positive controls, negative controls and experimental samples were spotted on the array.
The spotted arrays were then overlaid with HLA class I (e.g. HLA-A2) expressing adherent 293T cells and cultured for 48-72 hours to allow cells time to express vector-encoded transcripts.
The assay for CTL reactivity was then performed by incubating HLA-matched CD8^+ T cells from normal and prostate cancer patients on cultured reverse transfected microarray slides for 4 hours. Prior to incubation with the array, T cells from normals or patients may need to be expanded in vitro, to a small or large extent, to enhance the frequency of responding T cells. An inhibitor of activated caspase, fluorescence-tagged (sulfo-Rhodamine)-Z-VAD, is present throughout the cell incubation to bind caspases that become activated when antigen expressing adherent cells on certain spots are induced to die by the CTL. The slides are then washed to remove unbound fluorescent Z-VAD and 2-color (Green and Red) fluorescence images of the microarray slides are obtained with the microarray scanner.
Analysis and confirmation of data is then determined by visual inspection of the scanned image. The success of the reverse transfection is evaluated by observing green fluorescence at EGFP vector control spots. Then the fluorescence threshold(s) are adjusted on microarray scanner as necessary to establish relevant background and positive control signal intensities. […] Using the coordinate locations for the spots, the cDNAs yielding positive responses are identified.

Row | Molecule | PSMA messenger RNA (mRNA) down-regulated [1] | Patient ID with positive hit [2]
1 | C[C@]12CCC(=O)C[C@@H]1CC[C@@H]1[C@@H]2CC[C@]2(C)[C@@H](O)CC[C@@H]12 [5-alpha-dihydroxytestosterone] | 8-10 fold | 
2 | B1 |  | EYGRT; MSMPB
3 | B2 |  | EYGRT
4 | B3 |  | MSMPB

Reference: patent US20120141376A1, “PROSTATE SPECIFIC TRANSCRIPTS AND THE USE THEREOF FOR PROSTATE CANCER THERAPEUTICS AND DIAGNOSTICS” (priority 2006, published 2012)
